Paper PMC3156282 (Bioorganic & medicinal chemistry letters, 2011)
Numbered stars: 1 amine (or outer) side, 2 acyl side, 3 side chain; on linkers, the order of the positions; unused ones are H or OH. Square brackets hold non-standard residues; d marks the D form. Side chains are listed from the residue outwards. 4‑DMNA = 4-N,N-dimethylamino-1,8-naphthalimido-alanine, CN(C)c1ccc2c3c(cccc13)C(=O)N(C[C@H](N[*:1])C(=O)[*:2])C2=O; 4‑DMN = 4-DMN: an environment-sensitive fluorophore; 9‑Å linker = not defined here

Molecular target: Cdc42 (UniProt P60953 1-191)
Sequence (P60953 whole entry): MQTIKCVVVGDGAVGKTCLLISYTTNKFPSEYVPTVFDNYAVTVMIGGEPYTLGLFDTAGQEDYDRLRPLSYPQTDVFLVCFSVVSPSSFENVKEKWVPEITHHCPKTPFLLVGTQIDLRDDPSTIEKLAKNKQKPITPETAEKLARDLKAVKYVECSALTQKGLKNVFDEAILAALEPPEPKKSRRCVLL
Test: other fluorescence titration

Row | Kd [nM] | Binder
1 | 385 ± 9 | GB1-KKKISKADIGAPSGFKHVSHVGWDPQNGFDVNNLDPDLRCL[4‑DMNA]SRAGIS-His6 (domain or fragment)
2 | 341 ± 22 | GB1-KKKISKADIGAPSGFKHVSHVGWDPQNGFDVNNLDPDLRSLC([9‑Å linker-4‑DMN])SRAGIS-His6 (domain or fragment, UniProt P42768 230-277, looked up, not fully specified; reading uncertain) [4-DMN sensor 3 (GB1-WASP(230–277)-His6, Phe271Cys, Cys271 labeled with 4-DMN through a 9-Å linker)]
